# Data published in PMC3490818.
# T1: Signal peptide peptidase (human (endogenous in HEK293)), Q8TCT9
# T1 chain: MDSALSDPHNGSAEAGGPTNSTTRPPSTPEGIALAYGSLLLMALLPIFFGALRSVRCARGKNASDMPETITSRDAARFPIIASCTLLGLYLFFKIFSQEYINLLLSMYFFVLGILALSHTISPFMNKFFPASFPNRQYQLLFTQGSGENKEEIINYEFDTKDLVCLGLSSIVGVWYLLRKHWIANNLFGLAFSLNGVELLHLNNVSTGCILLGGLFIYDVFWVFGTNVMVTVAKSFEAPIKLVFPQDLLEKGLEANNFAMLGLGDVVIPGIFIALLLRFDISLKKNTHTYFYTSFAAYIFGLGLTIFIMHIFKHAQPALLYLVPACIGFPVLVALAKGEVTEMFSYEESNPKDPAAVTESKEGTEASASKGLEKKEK
# B1: Signal peptide peptidase, Q8TCT9 1-377 (natural protein)
# chain: T1 chain
# Molecular target: T1, Signal peptide peptidase (human …)
# Assay: native gel or EMSA; BN-PAGE of HEK293 or HEK293 vigilin-FLAG lysates solubilized in 0.5% DDM, Western blot for SPP and vigilin (or FLAG); second dimension SDS-PAGE for SPP
# Details: remark: other sources report otherwise
binder,measurement,value
B1,stoichiometry N,2
